In patent US20200095339A1 (IMMUNEONCO BIOPHARMACEUTICALS SHANGHAI, published 2020):

T1: human CD20 (human, UniProt P11836 1-297)
T1 construct: whole, on cells; Endogenous CD20 on a tumor cell line
T1 sequence (looked up): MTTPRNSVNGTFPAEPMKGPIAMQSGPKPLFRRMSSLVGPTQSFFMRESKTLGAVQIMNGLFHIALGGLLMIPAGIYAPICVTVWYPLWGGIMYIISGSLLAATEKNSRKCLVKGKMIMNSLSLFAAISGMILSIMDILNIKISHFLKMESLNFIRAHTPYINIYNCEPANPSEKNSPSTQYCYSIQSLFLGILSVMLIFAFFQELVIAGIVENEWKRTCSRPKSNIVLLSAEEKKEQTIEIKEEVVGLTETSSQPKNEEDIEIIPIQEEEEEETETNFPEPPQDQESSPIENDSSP

B1: Rituximab (antibody, V domains shown)
VH: QVQLQQPGAELVKPGASVKMSCKASGYTFTSYNMHWVKQTPGRGLEWIGAIYPGNGDTSYNQKFKGKATLTADKSSSTAYMQLSSLTSEDSAVYYCARSTYYGGDWYFNVWGAGTTVTVSA
VL: QIVLSQSPAILSASPGEKVTMTCRASSSVSYIHWFQQKPGSSPKPWIYATSNLASGVPVRFSGSGSGTSYSLTISRVEAEDAATYYCQQWTSNPPTFGGGTKLEIK
notes: Comparator antibody; also called Rituxan
B2: CD20mAb-SD1 (bispecific antibody, human IgG1, kappa)
heavy: not shown
light: QIVLSQSPAILSASPGEKVTMTCRASSSVSYIHWFQQKPGSSPKPWIYATSNLASGVPVRFSGSGSGTSYSLTISRVEAEDAATYYCQQWTSNPPTFGGGTKHELKRTVAAPSVFIFPPSDEQLKSGTASVVCLLNNFYPREAKVQWKVDNALQSGNSQESVTEQDSKDSTYSLSSTLTLSKADYEKHKVYACEVTHQGLSSPVTKSFNRGEC
notes: Four chains, two heavy and two light, joined by disulfide bonds; Expressed in CHO cells; also called recombinant bi-functional fusion protein; CD20Ab-SD1
B3: SD1-CD20mAb (bispecific antibody, human IgG1, kappa)
heavy: not shown
light: B2 light
notes: Four chains, two heavy and two light, joined by disulfide bonds; Expressed in CHO cells; also called recombinant bi-functional fusion protein

Columns and labels:
[1] = target: T1, human CD20; assay: flow cytometry on Raji-CD47KO cells (CD20+CD47-)
[2] = target: T1, human CD20; assay: cell-based or functional assay
[3] = target: T2, human CD47 (human, UniProt Q08722 19-323); assay: FACS competition on Jurkat cells against 25 nM labelled SIRPα-Fc. Number printed in the IC50 table although the Rituximab curve shows no inhibition (see non_binding). The table prints no unit, nM is taken from the concentration axis
T2 construct: whole, on cells; Endogenous CD47 on tumor cell lines
Protocol: (§1) The mixture was cultured at RT for 30 minutes, and then incubated with Jurkat cells at RT for 1 hour. After washes, the cells was added with fluorescence labeled streptavidin (FITC-Strep) and then incubated at RT for 1 hour.

[4] = target: T2, human CD47; assay: FACS competition on Jurkat cells; competitor 25 nM biotin-SIRPα-Fc, detected with FITC-streptavidin
Protocol: as §1

[5] = target: T2, human CD47; assay: flow cytometry on Jurkat cells (CD20-CD47+)
[6] = target: T2, human CD47; assay: cell-based or functional assay

Binder | EC50 [1] | ADCC EC50, Raji target cells, NK92MI-CD16a effector cells [2] | ADCC EC50, Raji-CD47KO target cells, NK92MI-CD16a effector cells [2] | IC50 [3] | EC50 [4] | CDC EC50, Raji target cells, rabbit complement [2] | EC50 [5] | phagocytosis of HL-60 cells by mouse macrophage cell line Ana-1, EC50 [6]
B1 | 0.06 nM | 3.82 ng/mL | 1.13 ng/mL | 7.19 nM | – | – | – | –
B2 | 0.08 nM | 0.14 ng/mL | 0.14 ng/mL | – | 476 nM | 11 nM | 2.72 nM | –
B3 | 0.4 nM | 0.15 ng/mL | 0.1 ng/mL | – | 19.7 nM | 3.36 nM | 0.09 nM | 300 ng/mL
